Laboratory results: the NTF2 design screens of Basanta et al. (2020)

Test: protease stability score; higher = more stable; yeast display proteolysis, trypsin and chymotrypsin;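 further: log10 excess protease needed over predicted unfolded state with 0 meaning unfolded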

Row | Sequence | protease stability score
1 | DEELADKMRKWWQNVHQGNHDHIREMVDPNVKFQVGNKQYHGRETMSSLVVELKREITFRVDRMSASVHNGRLHVRLDIKYEVNGQPDRENLRIEANIHNGKIKSLSVQMDNEKLKKLHK | 1.03
2 | DEELADLAHKLLEAYHTGNPDDVVRNMDPNARQTIGDRTVHGRENIKKMLRKVLQEWRIDIHLRSYHLNGNQVKLSADFNLTVNGKPDEFTATIIVIQHNGKIHEVQLRMPEQDFREITS | 1.05
3 | DEELAHKIAKLMETNNFQDMAKQADENATAVVGDFKVRGRSQLETLMQRFLDQIDHFEVKSWHIDNGNVHVNFVASVNGRTIEAQVIIHVSNGRIKSIELRVRNQDVQKHLRNMLS | 1.05
4 | DEELAKHFERVVRENNPDELQKQFDEDARVSVGNKRYHGREKVNDAIKRFMTNADEIRIEDIEIHGETIKVVYRFRVDGQSARVVMVVNIKDGRVKEMKISATDPRDVKVLDEVME | 1.7
5 | DEELAKIVLRLLQAEENGDERTLQENADPNVTINVGEKRIRGMETYAKEVTERRKRMRVEVDVKDYRNHGEHVVIVNTRLNESNGKPHRNRMQFVIHAHNGRITKISDNTDS | -0.009
6 | DEELAKKVLEKWVKVVDKGDDQAVKKLYKPNGTWINGDEETQGAEKVVKMMQKAQKKGDQFQVRKAKVEGNHVEFHYDLRIGDQTATFTVKVQVQGGRVEEVKVEVDKKAKEIITKG | 0.06
7 | DEELAKNLKEWWDVLKTGDTDRLKEMADPNAKFQIGDQTIHGMDRFVKEQVHHMQQMRFEIKVDSFSAHDGRIDIDAVQRVRVNGVPIDYTVKIRAEAHNGKWKSMELEIPENVVRELER | 1.27
8 | DEELDKRIVDALHAIQKGDERRLRQLFDKNVSFKVGDEEYHGMENYAKDQKRRRDKIRVQLQSVDAKHQGDRAHVDVQRELDINGRPRTVRMIVVAHAKNGRVKNMSMNVDPKEIRELDT | -0.159
9 | DEELEDLASRIWKAIDHNNPDELKRNFDENVNAQVGDTTYHGMDDWAREIVHNLKEMRIHWSDMRVSKQGEQVRIKARFVTKHNGRPQNMRMTAVFEAHNGRVQDYKQNNRG | -0.27
10 | DEELEDRWRKMLEARKTGDEDRIKENMDPNAELNVGDKTYHGHDKLAKTLVDEMRTIRVEYKKFSMDARGDTVEAKYRVIENHNGKPQEDTHRWSATNRGDKIQHVDVRSDK | -0.435
11 | DEELEEQVKEFFHAIETGDEDKLRELADPNARFHVGEKNLHGMKDVAERIRREREHIRYTVQIDSIKADGNRAHVRVVAEKEHNGNPRHFVLNVEIVRHNGRIRKVEATEDK | 0.938
12 | DEELEHILKDILKAQKHNDEKRLEELFDPNVHFEVGDKRYNGMSRFAHELAQTQKEIKWRVQWQTWDVQGNKATMQAEAVFEVNGRPFRYTYQARVQVKNGKVKRHEIHVDPQQLRDQNS | -0.087
13 | DEELEKHADTLFEAWNHNDPKTVMKMFDPNAHVDVGDHRFRGREDLHDKMSEIQEHARLRVDVKDVKAQGEKATVRFSIEINYNGKPTQDDVVQDMEVRNGRIKRLSYRTDK | -0.13
14 | DEELERQFHEFLKALETNDPHRMRQLVDPNARIRVGDKRYHGMEEYAKDVVKKMEEARVSIDIKSIEVQGNHFVVEHEITRDQNGKPKTHRQRMFFTVKNGKVKEMQIEDQK | 0.596
15 | DEELFELLRELLKAEQTGDEERLSQLVDKDVSVKIGDHVIHGRDQFAKHASERHKQMDVKVRIDSYEVRGDQVEASMTVVHDHNGRPHKDTVTLQAKYDNGKIKEMRFDFDTTVLKKIES | 0.609
16 | DEELHEVVERLLQALRNGDPDQFKKNVDPNVKIVVGETQYHGREEAAHQLHQEHNNSSFQYVSVDVQVHGNKVVIDQRRRETQNGQPDSENFSEEAEAHNGKFKHIRQRSTK | -0.235
17 | DEELHEWVKEYLKALQHNDPNQFKRLADPNVRYHVGDKEVHGREEWAKLVEKRRDSMRLEMKSVSIDAQGNKARVRLRFVEEHDGRPKEFEADFDFHVSNGKLVTVKVDEDQ | 0.123
18 | DEELHTIANEFNKALDRGDRKKLVDLADPNAQAVVGDQTLHGMEHVAHTIKKRQEEMRLDLKSVSVSVKGNNAILNFNALLHVNGKPVEISMRIILTVSNGKIQVIVEQFDPEQMRTARK | -0.289
19 | DEELIKLAHELLRVFRRGDEDRFRQLVDPNARLQVGDTTLHGRENLAHHLRQVREHIRVDIKIDSMTAKGNKVDIKAKMNLEHNGRPDEKTVNFNVDVHNGKVHQMSFDVDS | 0.714
20 | DEELITSANEMLQQLTTGNPQEIEKQADPNARVVVGDKTYTGMDQMARDRATEVQQIRRSFRIKTVQNQGDNANIHAEYEFNINGQPRTFELTLNVEAHNGKFVHIKYHLDPDHLNKLES | -0.078
21 | DEELKERYERQEKAFENGDPDQAEDMMDPNVHVDVGNKELHGREEIVRDLHNVLQNWRFDRKVDSVNNRGDKLEVDAKQTLNVNGKPFHWHFTIVARAHNGKLKSQTVEMDPDTNRKIQS | -0.057
22 | DEELKKQMDEALKARQNNDEQRLRDLFDPNVHIQVGDKVITGREEYAKRVVTTLRQLRFKYTVKSVKTKPNHIEIDVEVHNNRNGNPSNRKIVINMEADNGKISHLSVEHDG | 0.585
23 | DEELKKTATEFNKALNQNDEKRLKTLADPNATFVVGDEVIHGMDHVNKHQHDLKRNLRISIDVRDMKNSGPQAHVNAQVVFEIDGRPRQVEINYIITYHNGKVKKVRVDMDPEQLKEIKK | 1.08
24 | DEELKKVVDRMMKAITEGNPDKVRHLMDKDVKVDIGDKRIQGNEQNARDNEKSQNHLEESLDVKRVDNKGDKATVHLTVHVNHNGKPETFKLDIHVQAHNGKVKNMNFQKRP | -0.076
25 | DEELKKWFHHWVRAMERGDEQELRNQADPNAKFKIGDKTYHGMDEFARQVVQELRHLRVHIRFKRVRNEPGRLSVDATVVREHNGKPDSYRQKASATYHNGKLTNMTINKDK | 0.735

Row | Sequence | protease stability score
26 | DEELLELFERWVDAVHNNDKEQLKRLMDPNVKFQIGDKRWEGREKLVKDIADEQRQIRVRYRVDTMDATNGRADVHAKVEIEVNGKPISFRVRVFMEVHNGKVKSIVWNIPEDDMKKLQK | 1.63
27 | DEELLELVRRWITAVRTNDPKQLEKNFDPNAKFEYGDKSVRGKEQVVREQEKQVQEIRFSYRISDFRVDNGRVEMEVKVHEKHNGRPDTKTVKWKAEMSNGRLVWMRMQKRQ | 0.412
28 | DEELLERIKRIMHSGNFTELANQMDKDAKIIIGDKVLHGREQVEEWYDHLEREVDHVEVHTMTIHNGHLTVHMRMTINGKTFKVIMVIEVHNGRVKRVEVRVTDPNVQKWLKSILQ | 1.26
29 | DEELLHRIRDFLRAVRHGDSDHLRQLMDEDVKMTVGDHEIHGRERILDKIKQTRDEQRIHIQVRSMHADGDKATVHADIENEHNGQPQTAKLRMTVQVENGRIKQIDVEIKQ | 0.904
30 | DEELLKELLKYLKVREHGDKDKFERMADPNAKIHVGDREVHGREHLAKEIKTEKEEMEVSVDRYTQRVNGDKARLKVDFKVEHNGKPERRAHVLVMHTHNGKIKSLKAQDTD | -0.111
31 | DEELLKEWETLVEDNNEQDLSKMADEDARVNVGDKHYHGRENVEKFITTLAQRIDRIDIKTVDNDGEKVRIDMIAKFNGHQLRVVLEMQAHNGRVKVINARATNEDQEKLWKDLVD | 0.798
32 | DEELLKIAKQFFEAEQNGDEDELKEQMDPNANLEYGDRTVHGRENIARWVSRVLREARIDFKEISVQDHNGRAKIHVRFVIDVNGRPNRMTRIVVVEQHNGRIKYLNIRMSEEQLKKLKE | 0.132
33 | DEELLRNLEEVFKKNNFSTLANLADKDATLIVGDKVYKGKQQVRDWANELDERIDHVSIHSIDNQGDTMVARMVLNVDGVNAEFTLSVEISNGRVQVISLKVTDDEVKDQISKMES | 0.953
34 | DEELMKTVHDLYSNLRQNDEHKFDELVDPNASLRVGDKRLHGREQIHDELKRQNEEIHVSRQMKEMTVHNGRADVNIRASETHNGQPDEFTIDATFELHNGRFISIDIKKRP | -0.529
35 | DEELNHQVHSFIKNVRQGNPKEAVKQADPNVRVQVGNKVINGRENMEKWYREMKREMRIVIKVDRIRAHNGRAEATYKVEYDVNGKPYTNTNSMHVEAHNGRIVSIYEDFDETHLREVQS | -0.367
36 | DEELQDRFRRMIRIREEGDEQKLNEQVDPNVRLRVGDKEIKGREQLEEDQKRKNKQMRIRIKHLEVEAQGNKVRVSIHMTMRVNGRPFHFEFTANYTYHNGKLKHADVNIDPDFVREVHQ | 0.027
37 | DEELQDTAHKLLKLRQRGNWKHVQEMFDENARRIVGDKTLTGMTEIAEEVKREHEQWHLKITDLKASVEGDKVDIKFHAVFDVNGHPVTVNAMVVIVNQGDKAKRIQIRIPESVLNRINQ | 0.292
38 | DEELQEEIEKFWKQLEFGNEDSLEKLMDPNAEMRVGDHTLHGRDSIAKELRRRQEEQRVDIHSYKLSAHNGRVTVNIDATFNHNGNPDRKIQRASLEISNGKLKRMDVRDEQ | -0.046
39 | DEELQELATRQMEALHTNDEKQWVDLFDPNARQRYGDKTIKGREQFSQHLRDMQRHMRVQIHTFSAQVSNGDIHLKIDQLNNVNGTPYRDTVHLEFRVHNGRVKEVILHVSEDQQKKIER | 0.918
40 | DEELQENAEHFMDDLKTGNEDSIKQNADPNAHFQIGDKTFHGREDFVKHIKKQRQHARIQLDVKNIDVQGDHVTINANVIVNVDGRPQSADVTILIRYHNGRIHTVLYSFSEKDKKKMES | 0.872
41 | DEELQENAEHLVKAMNKGDREEISRQVDKNASVEIGDQELHGREDIRRFFHEVHEEMRFHIEIKTVDVKGNEVTVHAEAENDDNGRPQTNEVDIDIKVKNGKITSMRIQYNS | -0.539
42 | DEELQKLVDDLLQALRSNNPEQFENNFDPNAKIRYGEKDVHGRTRFVKELQRERDDARFRIETYRVDNQGDKASLKMVFQRDHNGQPQRHTARAEIVVKNGKVQTAVFNFDS | -0.018
43 | DEELQKMVEQFFRNEQNGNRDQLKRLADPNVNFQYGDKTIHGMDTFLQRQRERHEDSRQDFKSIDMKVQGDKVRVTAVLEQETDGQPERFRREMTVEAHNGKIKSVNVQHSQ | -0.082
44 | DEELQSDVEEFLRNQTTGDEDRLKELADENAKVHVGDKTLHGMDQIKRYERQEREEMRIDYKHWDIKVSGNQVTVHFDFVNRFNGKPQHVSVILHVQFDNGKIKAADYRTDPREREKIRS | -0.463
45 | DEELQSQAERFLKNLQRGDETKLLQQMDPNAKMQYGDKTVHGRERLRTWVKHVKDEMRVQVDKFRQTVSGNHIRFDWDATFNINGTPDKIRIDVDIQVHNGRIKLITFRVSEEQTKRLHS | 0.371
46 | DEELRKLAEQLVTIFQTGNEHHVQELMDPNAKLQIGDTEFKGREEYVKEVKKRRDEMRFSIKKVKVDAHGDKIDIKIHMTMKHDGKPRDYVVTVHLRVQGDKIKSAHYQDTK | 0.155
47 | DEELRKNFHTFLELMKNGNPEKLAEMADPNVRVNIGDEQLRGKHRLHQHARHLKHSLRFDYQSVDVKVTGNRVDANLRVVVKVNGKPIDYTVKIHITWRNGKIKTMEIKIPEDDQKKMRR | -0.089
48 | DEELRKQAEELLKARKTNDERQNEELFDPNAHVRYGDRTLHGNEQASKDIADRLEEIRVSMSVEKVEVQGEHVRLEFKFEFEVNGRPQTQTATEEMTVHNGRIKEVRLNVSEEQKRRYKK | -0.026
49 | DEELRKQAEEVMKAWQHGDEKTYMDLFDPNAKWEYGDDNITGRENMSDYMRKVRKEIRVHVQSVEVRAHNGRLEVVATEEREHNGRPDTVTVIMEAKAHNGKIQVVRVEERQ | 0.404
